Data as given in patent publication US20100248978.

Target: T1, p-hydroxyphenylpyruvate dioxygenase (HPPD) (Arabidopsis thaliana) (UniProt P93836)
T1 sequence: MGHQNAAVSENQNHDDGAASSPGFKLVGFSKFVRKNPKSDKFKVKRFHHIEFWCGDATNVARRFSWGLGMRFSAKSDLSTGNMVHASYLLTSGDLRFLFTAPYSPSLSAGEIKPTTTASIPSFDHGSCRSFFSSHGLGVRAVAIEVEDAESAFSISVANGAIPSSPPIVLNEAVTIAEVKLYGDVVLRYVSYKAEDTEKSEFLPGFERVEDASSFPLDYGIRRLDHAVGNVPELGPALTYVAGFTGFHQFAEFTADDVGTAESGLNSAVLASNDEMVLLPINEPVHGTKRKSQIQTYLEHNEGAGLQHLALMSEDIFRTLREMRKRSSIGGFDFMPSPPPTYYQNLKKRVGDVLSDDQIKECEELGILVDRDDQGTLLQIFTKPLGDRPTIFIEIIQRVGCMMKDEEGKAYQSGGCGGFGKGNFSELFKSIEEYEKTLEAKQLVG
Assay: filter
Details: 500 nM HPPD, 10% DMSO

“GGGAGAGGAGGGAGAUAGAUAUCAANNNNNNNNNNNNNNNNNNNNNNNNNNNNNNNNNNNNNNNNNNNNNNNAGUUUGUCCUCACGGUGGAUGG [S115B enriched library (cycle 9)]” was tested, and the binding signal (% RNA retained) was 10.
